Assay results from patent US20200239573A1 (CRESCENDO BIOLOGICS, published 2020).

Key:
[1] = target: T1, recombinant human PD-1 Fc chimera (human, UniProt Q15116 25-167); experiment: HTRF inhibition; strep-tagged PD-L1 vs PD-1-Fc
T1 construct: Bought protein; also called human PD-1-huFc; huPD-1-Fc; not shown: human Fc
Description: All samples and reagents were prepared in HTRF assay buffer containing PBS, 0.1% (w/v) BSA and 0.4M Potassium Fluoride. […] Total binding controls containing periplasmic extract sample buffer and non-specific binding controls containing excess untagged competitor were set up on each plate for data normalisation. Time-resolved fluorescent emission at 620 nm and 665 nm was measured following excitation at 337 nm on the BMG PHERAstar plate reader. Data was expressed as a % of the total binding control (% control) after subtraction of the background signal determined from the non-specific binding control wells.

[2] = target: T1, recombinant human PD-1 Fc chimera; experiment: HTRF inhibition; biotinylated PD-L2-Fc vs Eu-cryptate PD-1-Fc
[3] = target: human PD-1 on primary human CD4+ T cells (human, UniProt Q15116 21-288); experiment: flow cytometry on PHA-stimulated human CD4+ T cells (live cell gate)
Description: Binding of monovalent single domain antibodies and multivalent binding agents to T cells was measured using flow cytometry. […] T-cells were stimulated with 2.5 μg/ml PHA for 2-4 days in RPMI media supplemented with 10% FBS, 2 mM Glutamine, 1× Pen/Strep. Cells were transferred into 96 well plates (75000 per well), blocked for 10 mins with PBS/1% BSA, then incubated with serially diluted VH in staining buffer (PBS/1% BSA) for 1 hour at 4° C. Cells were washed with staining buffer by centrifugation then incubated with 10 μg/ml biotinylated Anti His antibody for 40 mins at 4° C. Cells were washed again then stained with Streptavidin Alexa Fluor-488 (10 μg/ml) and 1:5000 diluted Live Dead near IR stain (Molecular Probes cat no. L10119) for 30 mins at 4° C. After further washing cells were fixed and fluorescence measured by flow cytometry.

[4] = target: T2, human PD-1 expressed on cells (CHO human PD-1 cells) (human, UniProt Q15116 21-288); experiment: cell-based or functional assay
[5] = target: T2, human PD-1 expressed on cells (CHO …); experiment: FMAT inhibition; 200 pM PD-L2 on CHO human PD-1 cells
Description: (§1) All reagents and serially diluted VH were prepared in FMAT assay buffer. […] Plates were incubated for 2 hours at room temperature then fluorescence measured in the FL2 (502 nm-537 nm) and FL5 (677-800 nm) channels on the Mirrorball plate reader (TTP) following excitation at 488 nm and 640 nm. Data was expressed as a % of the total binding control (i.e. % control) after subtraction of the background signal determined from the non-specific binding control wells.

[6] = target: T2, human PD-1 expressed on cells (CHO …); experiment: FMAT inhibition; 100 pM PD-L1-Fc on CHO human PD-1 cells
Description: as §1

[7] = target: T2, human PD-1 expressed on cells (CHO …); experiment: FMAT 1.57 epitope competition assay on CHO human PD-1 cells; competitor: 1.57-Strep tagged protein; 1 day in mouse serum
Description: (§2) For the epitope competition assay reagents were prepared in FMAT assay buffer. […] Plates were incubated for a minimum of 1.5 hours at room temperature then fluorescence measured in the FL2 (502 nm-537 nm) and FL5 (677-800 nm) channels on the Mirrorball plate reader (TTP) following excitation at 488 nm and 640 nm. Data was expressed as a % of the total binding control (i.e. % control) after subtraction of the background signal determined from the non-specific binding control wells.
(§3) Serum stability of VH and multivalent VH constructs was assessed by measurement of their activity following incubation for 0, 1, 4 or 7 days in mouse serum (Sigma M5905).

[8] = target: T2, human PD-1 expressed on cells (CHO …); experiment: FMAT 1.57 epitope competition assay on CHO human PD-1 cells; competitor: 1.57-Strep tagged protein; 0 days in mouse serum
Description: as §2, §3

[9] = target: T2, human PD-1 expressed on cells (CHO …); experiment: cell-based or functional assay; remark: listed apart in the source
[10] = target: T2, human PD-1 expressed on cells (CHO …); experiment: cell-based or functional assay; remark: listed apart in the source
[11] = target: T3, Strep tagged recombinant human PD-1 (human, UniProt Q15116 25-170, limits assumed); experiment: SPR Biacore T200, strep-tagged PD-1 amine-coupled, single cycle kinetics
T3 construct: the whole entry is named; also called strep tagged human PD-1; not shown: Strep tag
Description: Single cycle kinetics assays were used to study the interaction between human PD-1 with Humabody® on a Biacore T200 instrument (GE Healthcare). Strep tagged recombinant human PD-1 was amine coupled to one flow cell of a CM-5 chip to create a low density surface (14 RU) using standard Biacore reagents. For the reference flow cell, a blank immobilisation was carried out. A five-point, three-fold dilution series of each Humabody® was made with a top concentration of 25 nM. The binding kinetics were followed by flowing the Humabody® over the chip surface in HBS EP+ buffer at a flow rate of 30 μl/min. The contact time for each of the association steps was 180 seconds and the dissociation step was 3300 seconds. The data was fitted to a 1:1 binding model after double reference subtraction using the Biacore T200 Evaluation software.

[12] = target: human PD-1 expressed on cells (CHO human PD-1 cells) (human) (UniProt Q15116); experiment: FMAT inhibition assay on CHO human PD-1 cells; blocked ligand: human Fc tagged human PD-L1
[13] = target: T1, recombinant human PD-1 Fc chimera; experiment: SPR Biacore T200, PD-1-Fc captured on protein G, single cycle kinetics
Description: Single cycle kinetics assays were used to study the interaction between human Fc tagged human PD-1 with Humabody® on a Biacore T200 instrument (GE Healthcare). Protein G was amine coupled to two flow cells of a CM-5 chip. Human Fc tagged recombinant human PD-1 was captured onto one of the flow cells. The other was used as the reference flow cell. A five point, three-fold dilution series of each Humabody® was made with a top concentration within the range of 50 to 150 nM. The binding kinetics were followed by flowing the Humabody® over the chip surface in HBS EP+ buffer at a flow rate of 30 μl/min. The contact time for each of the association steps was 180 seconds and the dissociation step was 3600 seconds. The data was fitted to a 1:1 binding model after double reference subtraction using the Biacore T200 Evaluation software.

T2 sequence (Q15116 21-288): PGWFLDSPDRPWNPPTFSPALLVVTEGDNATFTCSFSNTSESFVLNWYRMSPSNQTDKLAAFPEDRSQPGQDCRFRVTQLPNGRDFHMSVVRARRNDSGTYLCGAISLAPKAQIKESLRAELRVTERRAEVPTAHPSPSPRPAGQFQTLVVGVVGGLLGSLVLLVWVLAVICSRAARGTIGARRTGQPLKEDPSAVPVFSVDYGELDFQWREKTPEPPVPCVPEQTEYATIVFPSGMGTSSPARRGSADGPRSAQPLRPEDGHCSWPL
T3 sequence (Q15116 25-170 limits assumed): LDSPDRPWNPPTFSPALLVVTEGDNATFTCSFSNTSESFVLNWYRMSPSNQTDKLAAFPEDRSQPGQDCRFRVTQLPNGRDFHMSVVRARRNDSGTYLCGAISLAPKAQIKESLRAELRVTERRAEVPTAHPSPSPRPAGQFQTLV
T1 sequence (Q15116 25-167 limits assumed, change not shown): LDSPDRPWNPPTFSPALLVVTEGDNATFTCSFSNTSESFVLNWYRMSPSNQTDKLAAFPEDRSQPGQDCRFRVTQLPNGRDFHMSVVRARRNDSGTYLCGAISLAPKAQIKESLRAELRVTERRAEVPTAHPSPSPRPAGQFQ
Sequence of human PD-1 on primary human CD4+ T cells (Q15116 21-288): as the sequence (Q15116 21-288) above
Sequence of human PD-1 expressed on cells (CHO human PD-1 cells) (human) (Q15116 21-288): as above

EC50 (read off the curve) [3] [nM]	EC50 (M), reporter assay [9] [M]	EC50 (M), human PD-1 reporter gene assay [10] [M]	Kd [11] [nM]	koff [11] [s⁻¹]	kon [11] [M⁻¹ s⁻¹]	Binder	also measured
~2						Humabody® 1.2 (VHH, human VH single domain antibody) VHH: EVQLLESGGGLVKPGGSLRLSCAASGFTFSDYTMTWMRQAPGKGLEWVSYISTGGSIKYYTDSVKGRFTISRDNAKNSLYLQMNSLRADDTAVYYCAREAPLRLGESPHDAFDIWGQGTMVTVSS	IC50 [1]: 13 nM; IC50 [2]: 39 nM
						Humabody® 1.64 (VHH, human VH single domain antibody) VHH: EVQLVESGGGLVKPGGSLRLSCAASGFTFSDSSMTWMRQAPGKGLEWVSYISSGGGVKFYADSVKGRFTISRDNAKNSLYLQMNSLRADDTAVYYCAREAPLRLGESPHDAFDISGQGTMVTVSS	Reporter Assay EC50 [4]: 25 nM; IC50 [5]: 9 nM; IC50 [6]: 5.8 nM; IC50 (read off the curve) [7]: ~0.8 nM; IC50 (read off the curve) [8]: ~0.9 nM
~0.2	8.4e-10	8.4e-10	0.0171	1.32e-05	773000	1.57-6GS-1.57 (other, bivalent construct of two VH domains in one chain) QVQLVESGGGLVKPGGSLRLSCAASGFTFSDNSMTWMRQAPGKGLEWVSYISSGGGVIFYADSVKGRFTISRDNAKNSLYLQMNSLRADDTAVYYCAREAPLRLGESPHDAFDISGQGTMVTVSSGGGGSGGGGSGGGGSGGGGSGGGGSGGGGSQVQLVESGGGLVKPGGSLRLSCAASGFTFSDNSMTWMRQAPGKGLEWVSYISSGGGVIFYADSVKGRFTISRDNAKNSLYLQMNSLRADDTAVYYCAREAPLRLGESPHDAFDISGQGTMVTVSS	
						1.57-1.57 (protein, part only; not given: Linker of unstated length, part only) VH-linker-VH, part: QVQLVESGGGLVKPGGSLRLSCAASGFTFSDNSMTWMRQAPGKGLEWVSYISSGGGVIFYADSVKGRFTISRDNAKNSLYLQMNSLRADDTAVYYCAREAPLRLGESPHDAFDISGQGTMVTVSSQVQLVESGGGLVKPGGSLRLSCAASGFTFSDNSMTWMRQAPGKGLEWVSYISSGGGVIFYADSVKGRFTISRDNAKNSLYLQMNSLRADDTAVYYCAREAPLRLGESPHDAFDISGQGTMVTVSS	IC50 (read off the curve) [12]: 0.9 nM
	1e-09	1e-09	0.0222	1.4e-05	630000	1.57-9GS-1.57 (other, bivalent construct of two VH domains in one chain) QVQLVESGGGLVKPGGSLRLSCAASGFTFSDNSMTWMRQAPGKGLEWVSYISSGGGVIFYADSVKGRFTISRDNAKNSLYLQMNSLRADDTAVYYCAREAPLRLGESPHDAFDISGQGTMVTVSSGGGGSGGGGSGGGGSGGGGSGGGGSGGGGSGGGGSGGGGSGGGGSQVQLVESGGGLVKPGGSLRLSCAASGFTFSDNSMTWMRQAPGKGLEWVSYISSGGGVIFYADSVKGRFTISRDNAKNSLYLQMNSLRADDTAVYYCAREAPLRLGESPHDAFDISGQGTMVTVSS	dissociation rate constant (koff) [13]: 8.4e-05 s⁻¹; koff [13]: 1.14e-07 s⁻¹; kon [13]: 1.36e+06 M⁻¹ s⁻¹
